Source: US20070009964A1 (MERCK SERONO, published 2007)

Columns and labels:
[1] = target: T1, Human OX40R-IgG1 fusion protein (human, UniProt P43489 29-208); assay: Alphascreen binding assay, increasing OX40L-CD8 with 10 nM OX40R-IgG1; 10 nM OX40-IgG1
T1 construct: range 1-208; Purified on protein G; also called OX40-IgG1; OX40-IgG; not shown: constant region of human IgG1 (hinge region, CH2 and CH3), amino acids 98-330 of SWISSPROT Acc; No. P01857
T1 sequence (looked up): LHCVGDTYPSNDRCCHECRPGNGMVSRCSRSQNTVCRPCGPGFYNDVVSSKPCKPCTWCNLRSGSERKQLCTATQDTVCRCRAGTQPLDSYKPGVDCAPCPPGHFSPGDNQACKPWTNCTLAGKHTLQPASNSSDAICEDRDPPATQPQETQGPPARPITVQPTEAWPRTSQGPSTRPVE

[2] = target: T1, Human OX40R-IgG1 fusion protein; assay: Alphascreen saturation binding, 10 nM OX40R-IgG1, non-specific binding determined with 1 mM suramin
[3] = target: T1, Human OX40R-IgG1 fusion protein; assay: Alphascreen binding assay, increasing OX40L-CD8 with 5 nM OX40R-IgG1; 5 nM OX40-IgG1
[4] = target: T1, Human OX40R-IgG1 fusion protein; assay: Alphascreen competition, soluble OX40L displacing OX40L-CD8 (40 nM) from OX40R-IgG1 (10 nM)
Experimental: (§1) In the standard assay, OX40-IgG₁ and OX40L-CD8 were incubated together for 30 minutes, and then biotinylated anti-CD8 antibody (10 nM) was added. Following another incubation period of 30 minutes, streptavidin donor beads (20 μg/ml) and Protein A acceptor beads (20 μg/ml) were added to each individual well. The plate was counted 1 hour later using a Packard Fusion™ reader (Biosignal Packard) set at a read time of 1 second/well. Owing to the light sensitivity of the donor and acceptor beads, the experiments were carried out under […] and all incubation periods were performed at room temperature. The plate was read at an excitation wavelength of 680 nanometers combined with a shorter emission wavelength of 520-620 nanometers.
(§2) The ability of two known competitors of OX40L-OX40R interactions (untagged recombinant human soluble OX40L and suramin), which are themselves unable to generate an Alphascreen™ signal in this assay in absence of OX40L-CD8, to displace OX40L-CD8 from OX40R-IgG₁ was investigated. […] Increasing concentrations of OX40L (3 μM-0.1 pM) or suramin (1 mM -1 nM) were added to a reaction mixture also containing OX40-IgG₁ (10 nM) and OX40L-CD8 (40 nM). […] These values can be transformed by the Cheng-Prusoff equation (Cheng, Y C and Prusoff, W H, 1973) to Kᵢ values of 2.0 nM for OX40L and 26.3 μM for suramin. […]

[5] = target: T1, Human OX40R-IgG1 fusion protein; assay: Alphascreen competition against OX40L-CD8, IC50 transformed by the Cheng-Prusoff equation
Experimental: as §1, §2

[6] = target: T1, Human OX40R-IgG1 fusion protein; assay: fluorescence quenching spectroscopy of OX40R-IgG1 in solution
Experimental: (§3) The fluorescence quenching assay was performed as previously described (Golabek A et al., 2000). OX40R-IgG₁ (35 micrograms) was dissolved in 500 microliters of PBS and the fluorescence spectum was recorded at 295-420 nanometers with an excitation wavelength of 290 nanometers using a spectrofluorimeter (Perkin Elmer LS50B) with the slits set at 5 nanometers. Fluorescence spectra of human OX40R-IgG₁ were then recorded in the presence of increasing concentrations (5-1000 nM) of P5 and P5-1 peptides after 15 minutes of equilibration. The fluorescence change at 336 nanometers was plotted versus peptide concentration and the resulting curves were analyzed by nonlinear regression fit with Prism® software (GraphPad).
(§4) The affinity of the peptides identified in Example 1 as inhibitor of OX40L-OX40R interaction was evaluated by fluorescence quenching spectroscopy, a technology allowing such measurements in solution, under native conditions and without beads or other supports. This method is based on monitoring the changes in the intrinsic fluorescence of a protein (OX40R-IgG₁) upon its binding with another protein (P5 or P5-1). […]

[7] = target: T1, Human OX40R-IgG1 fusion protein; assay: fluorescence quenching spectroscopy of OX40R-IgG1 intrinsic fluorescence, non-linear regression
Experimental: as §3, §4

[8] = target: T1, Human OX40R-IgG1 fusion protein; assay: Alphascreen-based competition assay against OX40L-CD8 on OX40R-IgG1; P5 (amino acids 94-124)
Experimental: (§5) The soluble components (OX40-IgG₁, OX40L-CD8 and biotinylated anti-CD8 antibody) were mixed at the concentration described before for the competition assays with OX40L and suramin (FIG. 4), together with various concentrations of each peptide in a 5 microliter volume into a first addition step. The streptavidin donor and Protein A acceptor beads were added 30 minutes later. The plates were incubated for 2 hours in the dark, at room temperature and with shaking, before reading at a long excitation wavelength of 680 nm combined with a shorter emission wavelength of 520-620 nanometers, as described in Example 1.

[9] = target: T1, Human OX40R-IgG1 fusion protein; assay: Alphascreen-based competition assay against OX40L-CD8 on OX40R-IgG1; P5-1 (amino acids 107-116)
Experimental: as §5

Human OX40L-murine CD8 (from UniProt P01731 28-196) (ligand)
EC50 [1]: 7.9 nM
Kd [2]: 20.7 nM
EC50 [3]: 7.7 nM

B1: Recombinant human soluble OX40L (ligand)
chain: QVSHRYPRIQSIKVQFTEYKKEKGFILTSQKEDEIMKVQNNSVIINCDGFYLISLKGYFSQEVNISLHYQKDEEPLFQLKKVRSVNSLMVASLTYKDKVYLNVTTDNTSLDDFHVNGGELILIHQNPGEFCVL
notes: also called untagged recombinant human soluble OX40L; not shown: Glutathione-S-Transferase (GST) fusion partner
IC50 [4]: 5.9 nM
Ki [5]: 2 nM

B2: Peptide P5 (amino acids 94-124 of human OX40L) (peptide)
peptide: IINCDGFYLISLKGYFSQEVNISLHYQKDEE
notes: Synthetic peptide (Epytop), purity 85-97%
Kd [6]: ~7.9 nM
Kd [7]: 7.96 nM
Kd [8]: ~10000 nM

GYFSQEVNIS (Synthetic peptide (Epytop)) [Peptide P5-1 (amino acids 107-116 of human OX40L)]
Kd [9]: ~62000 nM
Kd [6]: ~24.6 nM
Kd [7]: 24.6 nM
